This experiment concerns the target T1, HLA-B*44:05 (human).
T1 construct: also called peptide-receptive MHC class I molecule
Briefly: UV peptide exchange, anti-b2m ELISA. The procedure:
Only peptide candidates that can effectively bind and stabilize the peptide-receptive MHC molecules prevent dissociation of the MHC complexes. To determine the yield of the exchange reaction, an ELISA was performed based on the detection of the light chain (β2m) of stabilized MHC complexes. The assay was performed as generally described in Rodenko et al. (Rodenko et al., 2006)
96 well MAXISorp plates (NUNC) were coated over night with 2 ug/ml streptavidin in PBS at room temperature, washed 4× and blocked for 1 h at 37° C. in 2% BSA containing blocking buffer. […] Peptide-MHC monomers of the UV-exchange reaction were diluted 100-fold in blocking buffer. Samples were incubated for 1 h at 37° C., washed four times, incubated with 2 ug/ml HRP conjugated anti-β2m for 1 h at 37° C., washed again and detected with TMB solution that is stopped with […]. Absorption was measured at 450 nm.
(In an ELISA, binding on a coated surface is turned into a signal by an enzyme label.)

Our source for the peptide exchange yield values is patent US20200087363A1 (IMMATICS BIOTECHNOLOGIES, published 2020).

Turning to EEFLRPRSL, the peptide exchange yield fell in the range of 20 to 50%.
SEKEPGQQY: the peptide exchange yield fell in the range of 20 to 50%.
In the case of NEILTIHF, the peptide exchange yield was in the range of 20 to 50%.
The molecule LEGGGRGGEF came in with a peptide exchange yield of 20 to 50%.
Regarding KEAFGPQAL, the peptide exchange yield is over 75%.
AEDNMVTSY: the peptide exchange yield fell in the range of 50 to 75%.
Molecule SEFLLRIF came in with a peptide exchange yield of 20 to 50%.
AEGEPPPAL registered a peptide exchange yield of 50 to 75%.
Next, AEALVDGKWQEF: 50 to 75%; KELSVFKKF: 50 to 75%; REAEEKEAQL: 50 to 75%.
In turn, DEDLFHKL came in with a peptide exchange yield of 20 to 50%.
The molecule AGSPVMRKW showed a peptide exchange yield of 20 to 50%.
Take EVEVGDRTDW: the peptide exchange yield fell in the range of 20 to 50%.
Next, QEDKATQTL: over 75%; WEVEVGDRTDW: 50 to 75%; SVNPIIYGF: 20 to 50%.
Next, MEILWKTLT: over 75%.
Next, LEMLDAHRL: 50 to 75%.
Molecule LEDQLKPMLEW displayed a peptide exchange yield of 50 to 75%.
Next, EEEVFSGMKL: over 75%; SEASVYLFRF: 50 to 75%.
Consider TELEVKIRDW, for which the peptide exchange yield is over 75%.
In turn, TEGDVLNYIF came in with a peptide exchange yield of 50 to 75%.
Molecule ALTEDSIDDTF had a peptide exchange yield of 10 to 20%.
For the molecule AEGEPPPALAW, the peptide exchange yield was 50 to 75%.
For the molecule YERPTLVEL, the peptide exchange yield lay within 50 to 75%.
Molecule SEAKEIKSQL displayed a peptide exchange yield of 50 to 75%.
As to AEDLEKKYA, the peptide exchange yield was 20 to 50%.
On to REEEANVVL, for which the peptide exchange yield is 50 to 75%.
In turn, LEYEAPKLY showed a peptide exchange yield of 20 to 50%.
As for MEIEGAGNFL, the peptide exchange yield is over 75%.
Next, LEIMTNLVTL: over 75%.
REILHAQTL had a peptide exchange yield of 50 to 75%.
Molecule RELPLVLLA returned a peptide exchange yield of 20 to 50%.
For TEEITEGVW, the peptide exchange yield is over 75%.
Next, SEDPEKYYL: 50 to 75%.
In the case of TEEPQRLFY, the peptide exchange yield fell in the range of 10 to 20%.
In turn, EELALRIGL registered a peptide exchange yield of 50 to 75%.
YEIRAEAL came in with a peptide exchange yield of 20 to 50%.
Next, RELRPLFDRQW: 50 to 75%.
In turn, MEIKGTVTEF gave a peptide exchange yield of 50 to 75%.
Molecule VEAATVSKW showed a peptide exchange yield of 50 to 75%.
The molecule SESLPRAPL registered a peptide exchange yield of 50 to 75%.
AEALVDGKW returned a peptide exchange yield of 50 to 75%.
AELPENLKALF yielded a peptide exchange yield of 50 to 75%.
SEVEGLAFV showed a peptide exchange yield of 50 to 75%.
Molecule TETDIDREY gave a peptide exchange yield of 20 to 50%.
In turn, SEDTIHTHL returned a peptide exchange yield of 50 to 75%.
